From IntAct's records for PubMed 11675338 come the findings set out here.

Assay [1] concerns the target fog1_mouse Zfpm1 (UniProt O35615).
Assay [2] shares this target. This is another data set of the same source.
Assay [3] has the same target. This is another data set of the same source.

Erythroid transcription factor (Homo sapiens), P15976 G208S, sequence (P15976 whole entry G208S): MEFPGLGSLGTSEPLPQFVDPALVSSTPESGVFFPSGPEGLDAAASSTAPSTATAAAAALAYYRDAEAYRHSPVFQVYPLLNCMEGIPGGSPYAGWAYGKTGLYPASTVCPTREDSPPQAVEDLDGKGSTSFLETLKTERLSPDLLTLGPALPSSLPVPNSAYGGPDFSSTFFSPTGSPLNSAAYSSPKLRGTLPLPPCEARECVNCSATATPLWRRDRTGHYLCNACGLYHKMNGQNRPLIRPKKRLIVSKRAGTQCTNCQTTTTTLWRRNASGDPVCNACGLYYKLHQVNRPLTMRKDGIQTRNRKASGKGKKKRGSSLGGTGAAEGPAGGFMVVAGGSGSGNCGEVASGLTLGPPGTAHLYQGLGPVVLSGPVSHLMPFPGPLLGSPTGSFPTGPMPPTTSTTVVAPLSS
fog1_mouse Zfpm1, sequence (O35615 whole entry): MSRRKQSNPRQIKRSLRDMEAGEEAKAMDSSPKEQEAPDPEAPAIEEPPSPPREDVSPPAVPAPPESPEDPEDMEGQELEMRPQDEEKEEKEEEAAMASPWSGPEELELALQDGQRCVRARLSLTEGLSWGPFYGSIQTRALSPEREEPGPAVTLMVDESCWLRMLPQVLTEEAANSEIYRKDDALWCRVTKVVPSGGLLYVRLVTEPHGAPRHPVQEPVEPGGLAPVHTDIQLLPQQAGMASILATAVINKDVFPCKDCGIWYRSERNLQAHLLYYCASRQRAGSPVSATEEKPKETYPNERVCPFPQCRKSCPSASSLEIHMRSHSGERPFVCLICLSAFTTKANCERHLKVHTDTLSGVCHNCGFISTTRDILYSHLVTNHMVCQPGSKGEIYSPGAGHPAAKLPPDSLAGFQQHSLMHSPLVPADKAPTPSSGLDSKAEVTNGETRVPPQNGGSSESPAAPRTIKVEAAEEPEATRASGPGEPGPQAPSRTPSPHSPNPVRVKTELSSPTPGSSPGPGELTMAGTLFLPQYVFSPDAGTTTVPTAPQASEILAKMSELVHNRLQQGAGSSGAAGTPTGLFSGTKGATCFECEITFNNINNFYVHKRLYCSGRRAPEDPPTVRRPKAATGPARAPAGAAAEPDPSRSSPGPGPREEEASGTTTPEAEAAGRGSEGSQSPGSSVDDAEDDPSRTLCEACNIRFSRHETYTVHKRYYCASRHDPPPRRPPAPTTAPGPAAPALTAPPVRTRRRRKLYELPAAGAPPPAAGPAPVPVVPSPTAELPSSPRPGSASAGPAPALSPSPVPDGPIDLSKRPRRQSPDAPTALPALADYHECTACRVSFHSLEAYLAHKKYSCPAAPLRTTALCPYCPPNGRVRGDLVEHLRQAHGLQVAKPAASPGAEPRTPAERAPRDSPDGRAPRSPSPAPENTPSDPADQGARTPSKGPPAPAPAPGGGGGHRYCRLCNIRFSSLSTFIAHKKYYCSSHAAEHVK

“Erythroid transcription factor (Homo sapiens), P15976 G208S”: the entries for the “effect of a mutation on the interaction” value with fog1_mouse Zfpm1 [1], with fog1_mouse Zfpm1 [2] and in the assay with fog1_mouse Zfpm1 [3] were “decreasing interaction strength”, “with no effect” and “increasing interaction strength”, respectively.
